From PMC7916480, “Functional and Structural Characterization of Nucleic Acid Ligands That Bind to Activated Coagulation Factor XIII” come the findings set out here.

To fix the notation:
T1: FXIIIa (activated coagulation factor XIII) (human, UniProt P00488 39-732)
T1 sequence: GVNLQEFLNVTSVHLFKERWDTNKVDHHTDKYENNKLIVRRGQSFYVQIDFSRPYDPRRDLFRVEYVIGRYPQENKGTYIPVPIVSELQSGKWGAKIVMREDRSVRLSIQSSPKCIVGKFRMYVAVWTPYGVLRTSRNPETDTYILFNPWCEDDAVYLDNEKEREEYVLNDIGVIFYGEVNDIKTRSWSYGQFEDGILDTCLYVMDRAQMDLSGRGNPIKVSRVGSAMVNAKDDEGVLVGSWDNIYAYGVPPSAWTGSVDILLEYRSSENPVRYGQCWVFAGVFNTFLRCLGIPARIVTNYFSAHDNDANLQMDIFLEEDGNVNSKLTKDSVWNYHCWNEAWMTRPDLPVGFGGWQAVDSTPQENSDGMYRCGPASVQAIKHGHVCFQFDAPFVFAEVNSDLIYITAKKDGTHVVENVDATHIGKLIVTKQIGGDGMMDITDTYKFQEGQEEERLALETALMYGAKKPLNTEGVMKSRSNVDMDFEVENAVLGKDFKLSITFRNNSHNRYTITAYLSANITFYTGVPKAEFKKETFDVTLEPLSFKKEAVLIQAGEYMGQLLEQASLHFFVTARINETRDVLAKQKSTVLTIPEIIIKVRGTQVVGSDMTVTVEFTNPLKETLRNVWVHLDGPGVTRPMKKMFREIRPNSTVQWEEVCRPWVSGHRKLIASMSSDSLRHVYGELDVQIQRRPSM

B1: FA6 (ssDNA)
DNA: AAGCAGTGGTAAGTAGGTTGACGCTGCGGGCATCACGTAAGTTAATATATCACTCGGCTATTCTCTTCGAGCAATCCACAC
B2: FA3 (ssDNA)
DNA: AAGCAGTGGTAAGTAGGTTGACCATCGTAGTTCGTACACCAGTCCATTCTAGGACTCACAATCTCTTCGAGCAATCCACAC
B3: FA2 (ssDNA)
DNA: AAGCAGTGGTAAGTAGGTTGAGCTTTCATCACCCGTCGGTTAGACTAAGTCTCCAGCATCCTCTCTTCGAGCAATCCACAC
B4: FA8 (ssDNA)
DNA: AAGCAGTGGTAAGTAGGTTGATCATCATGTTATTTTTGTTCCATCACGCCAGTTCTGGTTCTCTCTTCGAGCAATCCACAC
B5: FA1 (ssDNA)
DNA: AAGCAGTGGTAAGTAGGTTGACCATCCGCCGATTAGGCAATCACGTGGCTTAGGCACCGTATCTCTTCGAGCAATCCACAC
B6: FA12 (ssDNA)
DNA: AAGCAGTGGTAAGTAGGTTGATCATCCTCTTTAAGTCATCACTTTAGTTTCTCCATCTACATCTCTTCGAGCAATCCACAC

The first data set addresses T1, FXIIIa (activated coagulation factor …). In words: competition; competition with immobilized fibrinogen; not affected; BLI (BLItz, SAX sensors, 3'-biotinylated aptamer 1 µM) in binding buffer, 2200 rpm; buffer composition, pH and temperature not in material; plate capture 30 min; fibrinogen competition 30 min at RT. The settings on record: protein: recombinant; chain copies: 2; label: biotin (capture).
In the case of TACTGTCACGAGGATATAGCACATTAGTTCAGATACGATTGTTACTGTCA (ssDNA) [negative control oligonucleotide], the binding result is listed as “no binding”.

The target is the same in another data set. In words: competition; competition with immobilized fibrinogen, 25 nM FXIIIa; BLI (BLItz, SAX sensors, 3'-biotinylated aptamer 1 µM) in binding buffer, 2200 rpm; buffer composition, pH and temperature not in material; plate capture 30 min; fibrinogen competition 30 min at RT. The settings on record: protein: recombinant; chain copies: 2; label: 3'-biotin (BLI, capture, fibrinogen assay).
The term IC50 denotes the midpoint of a concentration-inhibition curve. B1: the IC50 came to 57 nM.

As for B2, the IC50 is 66.2 nM.

As to B3, the IC50 worked out at 39.3 nM.

Turning to B4, the IC50 came out at 136 nM.

Regarding B5, the IC50 came out at 89.5 nM.

For B6, the IC50 was determined as 38 nM.

Another data set has the same target. In words: BLI; BLI (BLItz, SAX sensors, 3'-biotinylated aptamer 1 µM) in binding buffer, 2200 rpm; buffer composition, pH and temperature not in material; plate capture 30 min; fibrinogen competition 30 min at RT. The settings on record: protein: recombinant; chain copies: 2; label: 3'-biotin (BLI, capture, fibrinogen assay). On the technique in general: Biolayer interferometry detects binding as a change in optical thickness at a sensor tip.
By Kd is commonly meant a measure of binding affinity in units of concentration. Regarding B1, the Kd came out at 93.5 nM.

As for B2, the Kd stood at 92.9 nM.

On to B3, for which the Kd turned out to be 79.1 nM.

For B4, the Kd came out at 79.1 nM.

Turning to B5, the Kd turned out to be 50.4 nM.

B6: the Kd is 51.8 nM.

For a further data set the target is unchanged. The data set can be described thus: pull-down (aptamer-coated plate, activity read-out); 30 nM FXIIIa; BLI (BLItz, SAX sensors, 3'-biotinylated aptamer 1 µM) in binding buffer, 2200 rpm; buffer composition, pH and temperature not in material; plate capture 30 min; fibrinogen competition 30 min at RT. The settings on record: protein: recombinant; chain copies: 2; label: 3'-biotin (BLI, capture, fibrinogen assay).
B1: the binding signal was roughly 5 % captured.

As to B2, the binding signal was roughly 5 % captured.

Turning to B6, the binding signal turned out to be 10 % captured.

Another data set has as its target activated coagulation factor XIII (FXIIIa), recombinant human (human) (UniProt P00488).
Assay: not given
Conditions: not given
With Tridegin (peptide), the inhibition of FXIIIa isopeptidase activity (fluorogenic peptide substrate, 12.8 nM FXIIIa) by tridegin, up to 12 µM is 50%.
